Paper PMC8211105

Experiments:
[1] = biological target: Spa33^C, purified recombinant (S. flexneri); assay: SEC; Spa33^C alone expressed in E. coli and purified by IMAC and Superdex 200 (20 mM Tris, 200 mM NaCl, pH 7.5); apparent homodimer
[2] = biological target: MxiN with an N-terminal His6-tag, purified (S. flexneri) (UniProt Q6XVX6); assay: BLI; His6-MxiN immobilised on Ni-NTA biosensor tips; untagged Spa33 at 400, 200, 100, 50, 25 and 12.5 µg/mL; PBS with 10% glycerol, 0.01% BSA, 0.002% Tween 20; 25°C; Octet RED96; 1:1 Langmuir model; KD from the equilibrium response (Req)

Substance	stoichiometry N [1]	Kd [2] [nM]
Spa33^C, purified recombinant (domain or fragment)	2	
Wild-type Spa33 heterotrimer (one Spa33^FL with two Spa33^C), purified, untagged (from UniProt P0A1K9 1-293) (complex)		550
